In experiment [1] the target is G3BP2 NTF2 domain (human) (UniProt Q9UN86).
Experiment [2] deals with G3BP1 NTF2 domain (human) (UniProt Q13283).
For a further experiment, the target named is USP7 MATH. Nature of the experiment: FP.
The target in another experiment is USP7 (human) (UniProt Q93009).
Experiment [3] deals with MAP1LC3C ATG8 domain (human) (UniProt Q9BXW4).
Experiment [4] addresses ATG9A FITC-….
Experiment [5] has as its target ATG8 domain of MAP1LC3C (human) (UniProt Q9BXW4). Nature of the experiment: FP.
Experiment [6] deals with FITC-MDM2 peptide (human).
The target of the next experiment is AP2M1 (human) (UniProt Q96CW1).
AP2M1 (human), sequence (Q96CW1 whole entry): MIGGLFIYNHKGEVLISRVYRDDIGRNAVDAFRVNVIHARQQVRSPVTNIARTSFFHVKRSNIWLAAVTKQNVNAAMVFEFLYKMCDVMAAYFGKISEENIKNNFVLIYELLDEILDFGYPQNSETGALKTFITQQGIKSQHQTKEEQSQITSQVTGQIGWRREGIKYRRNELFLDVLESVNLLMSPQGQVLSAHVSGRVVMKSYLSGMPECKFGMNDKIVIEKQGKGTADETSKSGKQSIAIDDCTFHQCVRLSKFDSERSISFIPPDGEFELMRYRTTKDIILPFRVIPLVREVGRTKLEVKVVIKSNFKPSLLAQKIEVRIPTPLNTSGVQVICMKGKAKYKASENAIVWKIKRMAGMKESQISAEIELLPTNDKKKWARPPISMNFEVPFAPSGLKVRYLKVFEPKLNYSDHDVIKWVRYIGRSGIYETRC
The target in experiment [7] is FITC-SQSTM1 peptide 335-344 (human).
Experiment [8] addresses SQSTM1 FITC-….

USP7 (human), sequence (Q93009 whole entry, the tested form may be a part): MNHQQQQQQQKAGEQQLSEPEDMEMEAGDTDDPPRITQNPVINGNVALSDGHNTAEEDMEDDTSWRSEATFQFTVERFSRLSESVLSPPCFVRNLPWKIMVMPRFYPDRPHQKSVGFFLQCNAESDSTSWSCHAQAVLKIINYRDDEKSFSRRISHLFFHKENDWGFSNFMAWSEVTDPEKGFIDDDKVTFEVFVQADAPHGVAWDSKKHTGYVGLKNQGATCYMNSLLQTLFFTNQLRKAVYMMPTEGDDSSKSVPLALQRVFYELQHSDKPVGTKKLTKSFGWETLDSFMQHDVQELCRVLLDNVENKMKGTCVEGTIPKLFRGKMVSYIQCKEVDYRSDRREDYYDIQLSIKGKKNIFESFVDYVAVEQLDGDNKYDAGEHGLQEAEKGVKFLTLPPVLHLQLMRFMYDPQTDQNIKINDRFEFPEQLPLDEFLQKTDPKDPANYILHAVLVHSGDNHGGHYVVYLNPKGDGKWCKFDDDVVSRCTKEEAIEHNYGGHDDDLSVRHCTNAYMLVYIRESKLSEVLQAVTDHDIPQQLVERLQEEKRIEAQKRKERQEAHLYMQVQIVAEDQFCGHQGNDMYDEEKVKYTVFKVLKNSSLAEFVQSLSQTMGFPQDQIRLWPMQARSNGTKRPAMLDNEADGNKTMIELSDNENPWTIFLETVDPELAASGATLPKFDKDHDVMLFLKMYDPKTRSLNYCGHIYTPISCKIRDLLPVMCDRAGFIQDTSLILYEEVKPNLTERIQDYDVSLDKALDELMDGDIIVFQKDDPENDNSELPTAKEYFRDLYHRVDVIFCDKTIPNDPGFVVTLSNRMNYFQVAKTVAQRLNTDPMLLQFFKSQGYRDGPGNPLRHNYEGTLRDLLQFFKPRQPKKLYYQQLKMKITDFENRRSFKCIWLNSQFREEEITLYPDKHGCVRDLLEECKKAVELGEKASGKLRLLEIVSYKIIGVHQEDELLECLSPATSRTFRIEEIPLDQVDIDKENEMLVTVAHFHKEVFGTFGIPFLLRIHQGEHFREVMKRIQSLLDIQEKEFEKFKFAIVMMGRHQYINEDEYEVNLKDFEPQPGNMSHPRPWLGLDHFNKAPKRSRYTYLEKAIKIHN
G3BP2 NTF2 domain (human), sequence (Q9UN86 11-133): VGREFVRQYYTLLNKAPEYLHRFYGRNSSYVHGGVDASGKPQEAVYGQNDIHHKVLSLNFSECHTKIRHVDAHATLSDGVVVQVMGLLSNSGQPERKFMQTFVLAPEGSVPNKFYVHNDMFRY
ATG8 domain of MAP1LC3C (human), sequence (Q9BXW4 whole entry, the tested form may be a part): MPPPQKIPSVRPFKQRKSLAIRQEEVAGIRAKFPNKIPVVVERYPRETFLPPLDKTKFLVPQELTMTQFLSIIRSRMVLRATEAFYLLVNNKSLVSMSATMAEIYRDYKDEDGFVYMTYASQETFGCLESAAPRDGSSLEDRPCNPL
G3BP1 NTF2 domain (human), sequence (Q13283 11-133): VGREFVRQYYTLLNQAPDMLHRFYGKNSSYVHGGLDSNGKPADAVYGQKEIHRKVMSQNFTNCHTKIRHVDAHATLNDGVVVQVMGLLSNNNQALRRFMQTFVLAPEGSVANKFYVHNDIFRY
MAP1LC3C ATG8 domain (human), sequence (Q9BXW4 1-126): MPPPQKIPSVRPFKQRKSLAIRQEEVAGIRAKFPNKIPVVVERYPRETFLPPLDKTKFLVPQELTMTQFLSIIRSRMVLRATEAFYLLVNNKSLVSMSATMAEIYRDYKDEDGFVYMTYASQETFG

In experiment [1], “NSP3 peptide 1785-1809 (SFV, Semliki-Forest-Virus)” came in with an IC50 of 0.0019 µM and a Ki of 0.15 µM. This substance had an IC50 in experiment [2] of 0.0044 µM.

Consider SARS-CoV-2 N 405-419, for which, in the experiment with USP7 MATH, the Kd is 150 µM.

For the substance SARS-CoV NSP4 3248-3263, the dissociation constant Kd in the experiment with USP7 MATH was 67 µM.

With NSP1 peptide 161-177 (Sars-CoV), in the experiment with USP7 (human), the IC50 stood at 2000 µM and the inhibitory constant (Ki) was determined as 280 µM.

For the substance N peptide 206-220 (Sars-CoV), in the experiment with USP7 (human), the IC50 came out at 1500 µM and the Ki was 220 µM.

With SARS-CoV-2 NSP4 3248-3263, the Kd with USP7 MATH worked out at 67 µM.

For “NSP3 peptide 1785-1796 (SFV, Semliki-Forest-Virus)”, the IC50 was 13 µM in experiment [1] and 23 µM in experiment [2].

In the experiment with USP7 MATH, SARS-CoV NSP3 2019-2034 gave a dissociation constant (Kd) of 29 µM.

In the experiment with USP7 (human), NSP3 peptide 1996-2011 (Sars-CoV) gave an IC50 of 210 µM and an inhibitory constant (Ki) of 29 µM. In experiment [3], this substance showed an IC50 of 200 µM and a Ki of 28 µM.

As for N peptide 406-422 (Sars-CoV), in the experiment with USP7 (human), the IC50 is 690 µM and the Ki is 96 µM.

In experiment [4], “AP2M1 (from UniProt Q96CW1 1-435) (domain or fragment)” registered a Kd of 1.1 µM.

For the substance SARS-CoV-2 NSP3 2019-2034, the Kd with USP7 MATH was found to be 37 µM.

SARS-CoV N 205-219 displayed a Kd with USP7 MATH of 220 µM.

“NSP3 peptide 1796-1809 (SFV, Semliki-Forest-Virus)” registered a half-maximal inhibitory concentration (IC50) in experiment [1] of 11 µM.

For the substance SARS-CoV NSP3 2019-2038, the Kd in experiment [5] is 28 µM.

In the case of SARS-CoV NSP1 161-176, the Kd with USP7 MATH was found to be 280 µM.

In experiment [6], “USP7 (from UniProt Q93009 1-1102) (domain or fragment)” yielded a Kd of 0.49 µM.

In the experiment with USP7 (human), “NSP4 peptide 3248-3263 (Sars-CoV2/Sars-CoV)” yielded an IC50 of 480 µM and a Ki of 67 µM.

Regarding SARS-CoV-2 NSP3 2019-2038, in [5], the Kd turned out to be 210 µM.

Take N peptide 353-367 (Sars-CoV2/Sars-CoV): in the experiment with AP2M1 (human), the IC50 worked out at 1530 µM and the inhibition constant Ki was found to be 530 µM.

Take SARS-CoV N 405-419: in the experiment with USP7 MATH, the equilibrium dissociation constant (Kd) was found to be 96 µM.

On to “MAP1LC3C ATG8 domain (from UniProt Q9BXW4 1-126) (domain or fragment)”, for which the Kd in experiment [7] and in experiment [8] was 1.1 µM in each case.

NSP14 peptide 6498-6512 (Mers) yielded an inhibition constant (Ki) with AP2M1 (human) of 3 µM.
